Data as given in publication PMC3268813.

Target: synthetic wild-type CRN2 coiled coil peptide (human), Q9ULV4
Assay: SEC-MALS

VQNEAKLDEILKEIKSIKDTICNQDERISKLEQQMAKIAA (modifications not checked) [synthetic wild-type CRN2 coiled coil peptide, Q9ULV4 442-472] showed a stoichiometry N of 3.
